Measured values: patent US20070178524A1, “Methods for determining and lowering caffeine concentration in fluids” (Washington University, priority 2004, published 2007)

Key:
[1] = Competition Caffeine-ELISA, competition by caffeine; format: binding; conditions: competitors caffeine, theophylline, theobromine; FIG. 4
Experimental: After caffeine specific clones had been identified, soluble VHH proteins not linked to phage particles were expressed (Harrison, supra). Binding activity of the VHH proteins was assessed in a Standard Caffeine-ELISA. Microtiter plates were coated with caffeine and blocked as above (Coating and Blocking Steps). The VHH proteins serially diluted in 20 mM Tris. pH 7.2 containing 150 mM NaCl and 0.1% Tween (TBS/BSA/Tween) were added and incubated for 90 min at 37° C. (Primary Antibody Step). Bound VHH fragments were detected by the addition of a 1/1000 dilution in TBS/BSA/Tween of mouse-anti-E Tag antibody (Amersham Bioscience Corporation) for 90 min at 37° C. (Secondary Antibody Step), followed by the addition of a 1/1000 dilution in TBS/BSA/Tween of goat-anti-mouse IgG-alkaline phosphatase conjugate for 90 min at 37° C. (Reporter Antibody Step), before the addition of para-nitrophenyl phosphate substrate (p-npp) (Sigma Aldrich) (Substrate Step). The wells were washed and monitored at A405 as above. […]
Binding of VHH proteins to unconjugated caffeine was also assessed by a competition assay (Competition Caffeine-ELISA) in which 0-800 μg/mL caffeine (Sigma-Aldrich) was added as a competitor along with the VHH during the Primary Antibody Step of the Standard Caffeine-ELISA. […] A405 readings with and without competitor were compared. […]

[2] = Competition Caffeine-ELISA, cross-reactivity with theophylline; format: binding
Experimental: (§1) Binding of VHH proteins to unconjugated caffeine was also assessed by a competition assay (Competition Caffeine-ELISA) in which 0-800 μg/mL caffeine (Sigma-Aldrich) was added as a competitor along with the VHH during the Primary Antibody Step of the Standard Caffeine-ELISA. All other steps are the same as for the Standard Caffeine ELISA. A405 readings with and without competitor were compared. The competition ELISA was used to assess cross-reactivity of theophylline and theobromine (Example 9, FIG. 4) and also the amount of caffeine in various beverages (Example 9, FIG. 7, Table 3).
(§2) Two additional methylxanthines with similar structure to caffeine, theobromine and theophylline, were tested for cross-reactivity with VSA2. The Competition Caffeine-ELISA described above was run using theobromine and theophylline (Sigma-Aldrich) as competitors at concentrations up to 250 μg/mL and compared to competition by caffeine.
(§3) The results of the competition caffeine-ELISA run with increasing concentrations of caffeine (-▪-), theophylline (. .●. .) or theobromine (- -▴- -) is shown in FIG. 4. The response (B) was compared to that of no competitor (Bo).

[3] = Competition Caffeine-ELISA, cross-reactivity with theobromine; format: binding; conditions: theobromine at concentrations up to 250 μg/mL
Experimental: as §1, §2, §3

[4] = Thermal stability: Standard Caffeine-ELISA after heat pre-incubation; format: binding
Experimental: (§4) After caffeine specific clones had been identified, soluble VHH proteins not linked to phage particles were expressed (Harrison, supra). Binding activity of the VHH proteins was assessed in a Standard Caffeine-ELISA. Microtiter plates were coated with caffeine and blocked as above (Coating and Blocking Steps). The VHH proteins serially diluted in 20 mM Tris. pH 7.2 containing 150 mM NaCl and 0.1% Tween (TBS/BSA/Tween) were added and incubated for 90 min at 37° C. (Primary Antibody Step). Bound VHH fragments were detected by the addition of a 1/1000 dilution in TBS/BSA/Tween of mouse-anti-E Tag antibody (Amersham Bioscience Corporation) for 90 min at 37° C. (Secondary Antibody Step), followed by the addition of a 1/1000 dilution in TBS/BSA/Tween of goat-anti-mouse IgG-alkaline phosphatase conjugate for 90 min at 37° C. (Reporter Antibody Step), before the addition of para-nitrophenyl phosphate substrate (p-npp) (Sigma Aldrich) (Substrate Step). The wells were washed and monitored at A405 as above. The Standard ELISA assay was used to assess thermal stability and reactivity of VSA2 (Example 9, FIGS. 5 and 6).
The thermal stability of VSA2 was determined and compared to that of two mouse anti-caffeine monoclonal antibodies (Catalog No. G45110 M and G45111 M, U.S. Biological, Swampscott, Mass.). Antibody solutions were prepared in TBS containing 0.1% Tween and incubated for 20 min at temperatures ranging from RT to 90° C. The solutions were re-equilibrated to RT before measuring caffeine binding activity. For VSA2, the Standard Caffeine-ELISA protocol was followed. For the commercial mouse monoclonal antibodies, the Secondary Antibody Step was skipped.

[5] = Thermal reactivity at 70° C. with caffeine-biotinylated nonapeptide and streptavidin magnetic beads; format: binding
Experimental: as §4
The thermal reactivity of VSA2 was also determined. […] The amount of unbound VSA2 remaining in the supernatant was determined in a Standard Caffeine-ELISA.

[6] = Removal of caffeine from solution by VSA2 NiNTA agarose column
Experimental: (§5) The ability of VSA2 to remove caffeine from solution was assessed. VSA2 still containing the His Tag (prior to thrombin cleavage) was coupled to a NiNTA agarose column via its N-terminus His Tag. Approximately 1 mg of antibody was bound to 1 ml of swollen agarose. One mg of a different unrelated protein which also contained a Histag was bound to a NiNTA agarose column as a control. Five μg of caffeine in 0.5 ml of PBS was passed over the column and then washed with 4 ml of PBS and 0.5 ml fractions collected. The amount of caffeine in the wash solutions was determined by absorbance at 273 nm and converted to amount of caffeine via comparison with the absorbance of standards (0, 2.5, 5, 10 ug).
The caffeine bound to the column was eluted with 8 M urea, 100 mM sodium phosphate, 10 mM tris, pH 6.3 and 4.1 ug of caffeine came off the column which was in excellent agreement with the 4.2 ug which had originally bound to the column. No caffeine was eluted from the control column.
The ability of the VSA2 column to remove caffeine from solution was confirmed using HPLC (method previously described) to analyze the original caffeine solution put on the column and the fractions from the column washes. […] The HPLC procedure could not be used to measure the caffeine eluted from the column due to the presence of 8 M urea.

[7] = Removal of caffeine from decaffeinated coffee by VSA2 column; conditions: HPLC
Experimental: as §5
The ability of VSA2 to remove caffeine from “decaffeinated” coffee was also assessed using brewed decaffeinated coffee (Seattle's Best™). By HPLC analysis, this batch of decaffeinated coffee had 30.8 μg/mL of caffeine. One hundred and sixty seven μL (5.15 μg caffeine) of the decaffeinated coffee was placed on the column and then the column washed as previously described and caffeine measured by HPLC in the 0.5 ml aliquots. 3.9 μg of caffeine was removed from the first decaffeinated coffee aliquot placed on the column and 0.5 μg from the second 167 μl aliquot. The total of 4.4 μg of caffeine removed by the column was very similar to the 4.2 μg removed by the column when caffeine was in a simple solution.

B1: VSA2: caffeine-specific llama single-domain heavy-chain (VHH) antibody fragment; SEQ ID NO: 1 with T7 and E tags, SEQ ID NO: 4 core (protein)
VHH: GSHMASMTGGQQMGRGSEFAEVQLQASGGGLVQAGGSLRLSCTASGRTGTIYSMAWFRQAPGKEREFLATVGWSSGITYYMDSVKGRFTISRDNAKNSAYLQMNSLKPEDTAVYYCTATRAYSVGYDYWGQGTQVTVSHAAAGAPVPYPDPLEPR
modifications: T7 and E tags; Camelidae antibody
[1]
  specificity for caffeine in competition caffeine-ELISA (B/Bo): highly specific for caffeine
[2]
  amount of theophylline relative to caffeine needed for equivalent competition: approximately fourteen times as much theophylline as caffeine
  cross-reactivity with theophylline: 7.4%
[2]; theophylline at 250 μg/mL
  competition by theophylline: some competition
[3]
  competition by theobromine: essentially no competition
[4]; 20 min at temperatures of 60° C. and below, re-equilibrated to RT
  effect of heat pre-incubation on caffeine binding: no effect
[4]; 20 min at temperatures up to 90° C., re-equilibrated to RT
  activity retained after heat pretreatment: greater than 90%
[4]; purified soluble antibodies, 2 llama and 2 camel clones
  heat stability compared among four representative clones: greatest degree of heat stability
[5]; 20 μg/mL caffeine-biotinylated-nonapeptide
  VHH remaining in solution: 56.8%
[5]; 200 μg/mL caffeine-biotinylated-nonapeptide
  VHH remaining in solution: 20.1%
[6]; HPLC analysis
  caffeine bound to the column: 3.8 µg
[6]; eluted with 8 M urea, 100 mM sodium phosphate, 10 mM tris, pH 6.3
  caffeine eluted from the column: 4.1 µg
[6]; first 5 μg caffeine aliquot, UV method
  caffeine bound to the column: 3.6 µg
[6]; five μg caffeine in PBS added, about 1 mg His-tagged VSA2 on 1 ml agarose, absorbance at 273 nm, average of duplicate
  caffeine recovered in the washing solutions: 1.4 µg
[6]; second 5 ug caffeine aliquot, UV method
  additional bound caffeine: 0.6 µg
[6]; two 5 ug aliquots, UV method
  total caffeine originally bound to the column: 4.2 µg
[7]; first 167 μL decaffeinated coffee aliquot (5.15 μg caffeine)
  caffeine removed: 3.9 µg
[7]; second 167 μl decaffeinated coffee aliquot
  caffeine removed: 0.5 µg
[7]; two decaffeinated coffee aliquots
  total caffeine removed by the column: 4.4 µg
